# Results published in PMC13108886, “Constitutively active RAS prolongs Cdc42 signalling, while MAPK signalling is attenuated during fission yeast mating” (PLOS Genetics, 2026).
# T1: GTP-loaded Ras1.G17V (1-172) (Schizosaccharomyces pombe (fission …, UniProt P08647 1-172, G17V))
# T1 construct: stopped with 20.5 mM MgCl2) just before the pull-down; Cloned in the vector pLEICS1; also called Ras1.G17V^GTP; source: E. coli BL21 Rosetta, purified (Ni Sepharose 6 Fast Flow), loaded with GTP
# T1 sequence (looked up): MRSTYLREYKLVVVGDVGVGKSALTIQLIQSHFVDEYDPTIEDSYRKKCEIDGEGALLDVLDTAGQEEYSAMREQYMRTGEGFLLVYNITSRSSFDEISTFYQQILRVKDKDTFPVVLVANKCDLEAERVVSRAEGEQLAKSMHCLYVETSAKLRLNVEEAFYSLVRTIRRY
# Key:
# [1] = biological target: T1, GTP-loaded Ras1.G17V (1-172); assay: pull-down; GST-Byr2 (65-180) or GST-Scd1 (760-872) on glutathione sepharose 4B beads, GTP-loaded Ras1.G17V (1-172) added; buffer A (20 mM Tris-Cl pH 7.5, 100 mM NaCl, 5 mM MgCl2, 1 mM beta-mercaptoethanol), 4 C, 30 min; bound fraction on SDS-PAGE, InstantBlue stain; details: both partners purified
# [2] = biological target: T1, GTP-loaded Ras1.G17V (1-172); assay: pull-down; competition: GST-Byr2 (65-180) on glutathione beads, GTP-loaded Ras1.G17V (1-172) with or without the Scd1 (760-872) fragment; buffer A, 4 C, 30 min; Ras1.G17V band on the stained gel quantified with Fiji; details: both partners purified
binding result [1],binding result [2],Binder
binds,–,"GST-Byr2 (65-180) (domain or fragment, UniProt P28829 65-180, looked up, Cloned in the vector pLEICS4; also called GST-Byr2-RBD; Byr2-RBD; source: E. coli BL21 Rosetta, purified (glutathione sepharose 4B), kept on the beads; not shown: GST, N-terminal, kept) REFPRPCILRFIACNGQTRAVQSRGDYQKTLAIALKKFSLEDASKFIVCVSQSSRIKLITEEEFKQICFNSSSPERDRLIIVPKEKPCPSFEDLRRSWEIELAQPAALSSQSSLSP"
binds,–,"GST-Scd1 (760-872) (domain or fragment, UniProt P40995 760-872, looked up, Cloned in the vector pLEICS4; also called GST-Scd1-PB1; Scd1-PB1; source: E. coli BL21 Rosetta, purified (glutathione sepharose 4B), kept on the beads; not shown: GST, N-terminal, kept) SSSTSTSLSVRNTTNVKIRLRLHEVSLVLVVAHDITFDELLAKVEHKIKLCGILKQAVPFRVRLKYVDEDGDFITITSDEDVLMAFETCTFELMDPVHNKGMDTVSLHVVVYF"
–,binds,"Scd1 (760-872) fragment (domain or fragment, UniProt P40995 760-872, looked up, legend and methods say the fragment freed of GST; also called Scd1-PB1; source: E. coli BL21 Rosetta; not shown: GST, N-terminal, cleaved) SSSTSTSLSVRNTTNVKIRLRLHEVSLVLVVAHDITFDELLAKVEHKIKLCGILKQAVPFRVRLKYVDEDGDFITITSDEDVLMAFETCTFELMDPVHNKGMDTVSLHVVVYF"
